Reference: US20240150451A1 (Janssen / Centocor, published 2024)
Changes are numbered by the printed parent chain.

T1: Tau peptide Start 415 Stop 434
T1 peptide: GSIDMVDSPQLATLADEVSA

T2: Tau peptide Start 417 Stop 436
T2 peptide: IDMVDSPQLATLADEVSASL

T3: Tau peptide Start 419 Stop 438
T3 peptide: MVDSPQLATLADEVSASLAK

T4: Tau peptide Start 421 Stop 440
T4 peptide: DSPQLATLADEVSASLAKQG

T5: Tau peptide Start 422 Stop 441
T5 peptide: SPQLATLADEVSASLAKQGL

T6: Tau peptide Start 3 Stop 22 (Synthetic linear peptide immobilised on a Pepscan array; the attachment to the array cannot be carried by the letters.)
T6 peptide: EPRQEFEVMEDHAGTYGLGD

T7: Tau peptide Start 411 Stop 430
T7 peptide: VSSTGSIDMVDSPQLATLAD

T8: Tau peptide Start 413 Stop 432
T8 peptide: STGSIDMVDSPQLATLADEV

B1: hTau60 monoclonal antibody (recombinant, mouse IgG2a/kappa) (antibody, V domains shown)
VH: EVQLQQSGPELVKPGTSVKISCKVFGYTFTDYYMNWVKQSHGKSLEWIGDINPDNGETTYNQKFKGKATLTVDKSSSTAYMELRSLTSEDSAVYYCAKGATFVYWGQGTLVTVSA
VL: DVVMTQTPLSLPVSLGDQASISCISSQSLVHSTGTTFLHWFLQKPGQSPKLLIYKVSNRFSGVPDRFSGSGSGTDFTLKISRVEAEDLGFYFCSQSTYFPLTFGSGTKLEIKR
notes: also called hTau60 (PT1B469)
B2: hTau/60 hybridoma (antibody, V domains shown)
VH: B1 VH
VL: DVVMTQTPLSLPVSLGDQASISCISSQSLVHSTGTTFLHWFLQKPGQSPKLLIYKVSNRFSGVPDRFSGSGSGTDFTLKISRVEAEDLGFYFCSQSTYFPLTFGSGTKLEIK
notes: parent of m1; also called hybridoma-produced hTau/60
B3: hTau60 Fab (chimeric: mouse variable domains, human IgG1/kappa constant domains, His tag) (Fab, V domains shown)
VH: B1 VH
VL: B2 VL
notes: Fab expressed in HEK293F cells; also called hTau60 Fab fragment; not shown: His tag at the C-terminus of the heavy chain; human kappa light chain constant domain
B4: PT/66 hybridoma (antibody, V domains shown)
VH: QVQLQQPGAELVKPGASVKMSCKASGYTFTSYWITWVKQRPGQGLEWIGDIHPGRGSTKSNEKFKSKATLTVDTSSSTAYMQFSSLTSEDSAVYYCARRWGFDYWGQGTTLTVSS
VL: DIVITQDELSNPVTSGESVSISCRSSKSLLYKDGKTYLNWFLQRPGQSPQLLIYLMSTRASGVSDRFSGSGSGTDFTLEISRVKAEDVGVYYCQQLVDYPLTFGAGTKLELK
notes: parent of m2; also called hybridoma-produced PT/66
B5: PT66 monoclonal antibody (recombinant, mouse IgG2a/kappa) (antibody, V domains shown)
VH: B4 VH
VL: DIVITQDELSNPVTSGESVSISCRSSKSLLYKDGKTYLNWFLQRPGQSPQLLIYLMSTRASGVSDRFSGSGSGTDFTLEISRVKAEDVGVYYCQQLVDYPLTFGAGTKLELKR
notes: also called PT66 (PT1B545)
B6: PT66 Fab (chimeric: mouse variable domains, human IgG1/kappa constant domains, His tag) (Fab, V domains shown)
VH: B4 VH
VL: B4 VL
notes: Fab expressed in HEK293F cells; also called PT66 Fab fragment; not shown: His tag at the C-terminus of the heavy chain; human kappa light chain constant domain
B7: PT69 monoclonal antibody (recombinant, mouse IgG2a/kappa) (antibody, V domains shown)
VH: B4 VH with S31N, H52Y, R55S, S57R, S66N, V72A, F83L, A97T, F102L
VL: B5 VL with S26N
notes: also called PT69/PT87; PT69 (PT1B548)

Assays:
[1] = target: T9, recombinant full-length tau 2N4R (control tau) (human, UniProt P10636 2-758); assay: direct ELISA on full-length 2N4R Tau coated at 1 ng/mL
T9 construct: also called recombinant WT (2N4R) tau; Rec; Tau
Description: (§1) Binding to recombinant WT (2N4R) tau was analyzed by ELISA. Full-length Tau protein (1 ng/mL or 10 ng/mL) was directly coated to the plate and incubated with different concentrations of either recombinantly- or hybridoma-produced PT/66, PT/69 or hTau/60 antibodies (FIG. 1). […] No substantial difference was observed between binding profiles of recombinant and hybridoma produced antibodies.

[2] = target: T9, recombinant full-length tau 2N4R …; assay: direct ELISA on full-length 2N4R Tau coated at 10 ng/mL
Description: as §1

[3] = target: T1, Tau peptide Start 415 Stop 434; assay: Pepscan ELISA on an array of linear 20-mer Tau 441 peptides; parameters: peptide ELISA signal (no name or unit printed): unit not given here
Excerpt: (§2) An amino functionalized polypropylene support was obtained by grafting with a proprietary hydrophilic polymer formulation, followed by reaction with t-butyloxycarbonyl-hexamethylenediamine (BocHMDA) using dicyclohexylcarbodiimide (DCC) with N-hydroxybenzotriazole (HOBt), and subsequent cleavage of the Boc-groups using trifluoroacetic acid (TFA). Standard Fmoc-peptide synthesis was used to synthesize peptides on the amino-functionalized solid support by custom modified JANUS liquid handling stations (Perkin Elmer). Synthesis of structural mimics was done using Pepscan's proprietary Chemically Linked Peptides on Scaffolds (CLIPS) technology. CLIPS technology allows to structure peptides into single loops, double loops, triple loops, sheet-like folds, helix-like folds, and combinations thereof. CLIPS templates are coupled to cysteine residues. The side-chains of multiple cysteines in the peptides are coupled to one or two CLIPS templates. For example, a 0.5 mM solution of the P2 CLIPS (2,6-bis(bromomethyl)pyridine) is dissolved in ammonium bicarbonate (20 mM, pH 7.8)/acetonitrile (1:3 (v/v)). This solution is added onto the peptide arrays. The CLIPS template will bind to side-chains of two cysteines as present in the solid-phase bound peptides of the peptide-arrays (455 wells plate with 3 μl wells). The peptide arrays are gently shaken in the solution for 30 to 60 minutes while completely covered in solution. Finally, the peptide arrays are washed extensively with excess of H₂O and sonicated in disrupt-buffer containing 1% SDS/0.1% beta-mercaptoethanol in PBS (pH 7.2) at 70° C. for 30 minutes, followed by sonication in H₂O for another 45 minutes. The T3 CLIPS carrying peptides were made in a similar way but now with three cysteines.
(§3) The binding of antibodies (recombinantly expressed as IgG2a) to each of the synthesized peptides was tested in a pepscan-based ELISA. The peptide arrays were incubated with primary antibody solution (overnight at 4° C.). After washing, the peptide arrays were incubated with a 1/1000 dilution of an appropriate antibody peroxidase conjugate (SBA; Table 4) for one hour at 25° C. After washing, the peroxidase substrate 2,2′-azino-di-3-ethylbenzthiazoline sulfonate (ABTS) and 20 μl/ml of 3 percent H₂O₂ were added. After one hour, the color development was measured.

[4] = target: T2, Tau peptide Start 417 Stop 436; assay: as above; parameters: peptide ELISA signal (no name or unit printed): unit not given here
Excerpt: as §2, §3

[5] = target: T3, Tau peptide Start 419 Stop 438; assay: as above; parameters: peptide ELISA signal (no name or unit printed): unit not given here
Excerpt: as §2, §3

[6] = target: T4, Tau peptide Start 421 Stop 440; assay: as above; parameters: peptide ELISA signal (no name or unit printed): unit not given here
Excerpt: as §2, §3

[7] = target: T5, Tau peptide Start 422 Stop 441; assay: as above; parameters: peptide ELISA signal (no name or unit printed): unit not given here
Excerpt: as §2, §3

[8] = target: Tau peptide Start 1 Stop 20 (Synthetic linear peptide immobilised on a Pepscan array; the attachment to the array cannot be carried by the letters.); assay: as above; parameters: peptide ELISA signal (no name or unit printed): unit not given here
Excerpt: as §2, §3

[9] = target: T6, Tau peptide Start 3 Stop 22; assay: as above; parameters: peptide ELISA signal (no name or unit printed): unit not given here
Excerpt: as §2, §3

[10] = target: T7, Tau peptide Start 411 Stop 430; assay: as above; parameters: peptide ELISA signal (no name or unit printed): unit not given here
Excerpt: as §2, §3

[11] = target: T8, Tau peptide Start 413 Stop 432; assay: as above; parameters: peptide ELISA signal (no name or unit printed): unit not given here
Excerpt: as §2, §3

[12] = target: T10, PHF-tau (paired helical filament tau; sarcosyl insoluble prep from human AD brain) (human, UniProt P10636-8 2-441, limits assumed, hyper-phosphorylated (sites not specified)); assay: SPR (ProteOn), mAb on PHF-tau, bivalent analyte fit; apparent affinity (avidity)
T10 construct: also called aggregated PHF Tau; aggregated tau (AD brain)
Description: (§4) The interactions with PHF-tau and recombinant tau were assessed by SPR on ProteOn (Bio-Rad, Hercules, CA) instrument for PT66, PT69, hTau60 anti-tau antibodies and their corresponding Fab fragments. Because of the multimeric/aggregated nature of PHF-tau with multiple copies of the epitope, and the bivalent nature of IgGs, mAb affinity was influenced by avidity in this study format. Fab affinity provides information on the intrinsic affinity of the antibody. Representative sensorgrams of mAbs and their Fab fragments binding to PHF Tau are shown in FIG. 3 and a summary is represented in Table 1 below. HT7 was used as a reference.

[13] = target: T10, PHF-tau (paired helical filament tau; …); assay: SPR (ProteOn), Fab on PHF-tau, 1:1 Langmuir fit
Description: as §4

[14] = target: T9, recombinant full-length tau 2N4R …; assay: SPR (ProteOn), Fab on recombinant full-length tau, 1:1 Langmuir fit
Description: as §4

Tau peptide Start 1 Stop 20 (Synthetic linear peptide immobilised on a Pepscan array; the attachment to the array cannot be carried by the letters.), sequence (peptide, as listed by the source limits assumed): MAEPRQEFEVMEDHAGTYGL

Binder | EC50 (read off the curve) [1] | EC50 (read off the curve) [2] | binding result [3] | peptide ELISA signal (no name or unit printed) [3] | binding result [4] | peptide ELISA signal (no name or unit printed) [4] | binding result [5] | peptide ELISA signal (no name or unit printed) [5] | peptide ELISA signal (no name or unit printed) [6] | peptide ELISA signal (no name or unit printed) [7] | peptide ELISA signal (no name or unit printed) [8] | peptide ELISA signal (no name or unit printed) [9] | peptide ELISA signal (no name or unit printed) [10] | binding result [11] | peptide ELISA signal (no name or unit printed) [11] | Kd [12] | Kd [13] | Kd [14]
B1 | ~0.01 µg/mL | ~0.01 µg/mL | no binding | 24 | no binding | 48 | no binding | 45 | 2910 | 2920 | 48 | 44 | 36 | no binding | 46 | 0.069 nM | – | –
B2 | ~0.005 µg/mL | ~0.005 µg/mL | – | – | – | – | – | – | – | – | – | – | – | – | – | – | – | –
B3 | – | – | – | – | – | – | – | – | – | – | – | – | – | – | – | – | 0.427 nM | 0.026 nM
B4 | ~0.01 µg/mL | ~0.005 µg/mL | – | – | – | – | – | – | – | – | – | – | – | – | – | – | – | –
B5 | ~0.04 µg/mL | ~0.01 µg/mL | – | 2930 | – | 2940 | – | 2930 | 2930 | 2950 | 40 | 45 | 50 | – | 2520 | 0.056 nM | – | –
B6 | – | – | – | – | – | – | – | – | – | – | – | – | – | – | – | – | 0.514 nM | 0.04 nM
B7 | – | – | – | 2830 | – | 2920 | – | 2920 | 2930 | 2930 | 30 | 38 | 43 | – | 1380 | – | – | –
